Experimental data reported in the supplement of paper PMC7877785.
± gives the uncertainty stated by the source.

Assay: self-splicing fitness, log relative to wild type (ln ratio); higher = more splicing; Tetrahymena group I intron in knt gene, E. coli kanamycin selection, DiMSum; sequences stand for … in CUCUCU…GGAGGGAAAAGUUAUCAGGCAUGCACCUGGUAGCUAGUCUUUAAACCAAUAGAUUGCAUCGGUUUAAAAGGCAAGACCGUCAAAUUGCGGGAAAGGGGUCAACAGCCGUUCAGUACCAAGUCUCAGGGGAAACUUUGAGAUGGCCUUGCAAAGGGUAUGGUAAUAAGCUGACGGACAUGGUCCUAACCACGCAGCCAAGUCCUAAGUCAACAGAUCUUCUGUUGAUAUGGAUGCAGUUCACAGACUAAAUGUCGGUCGGGGAAGAUGUAUUCUUCUCAUAAGAUAUAGUCGGACCUCUCCUUAAUGGGAGCUAGCGGAUGAAGUGAUGCAACACUGGAGCCGCUGGGAACUAAUUUGUAUGCGAAAGUAUAUUGAUUAGUUUUGGAGUACUCGUGGUCG
Outline: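 Six replicate transformations of E. coli BL21(DE3) with a pET-22b(+) library were grown overnight at 37°C or 30°C. The library randomised all eight P1ex-region intron nucleotides, the intron lying in the knt kanamycin-resistance gene, and plates were LB agar with or without 25 μg/mL kanamycin plus 100 μg/mL carbenicillin, 50 μM IPTG and 0.2% rhamnose. Pooled colonies were amplicon-sequenced on an Illumina HiSeq 2500, and fitness is the DiMSum error-weighted combination of wild-type-normalised replicate fold changes, kanamycin versus none.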

Sequence: UAGUAGCAAUAUUACGUGAG
- self-splicing fitness (ln) (30 °C): -1.3 ± 0.074
- self-splicing fitness (ln) (37 °C): -1.87 ± 0.12

Sequence: UAGUAGCAAUAUUACGUUCU
- self-splicing fitness (ln) (30 °C): -1.88 ± 0.12
- self-splicing fitness (ln) (37 °C): -0.844 ± 0.098

Sequence: UAGUAGCAAUAUUACGUUUA
- self-splicing fitness (ln) (30 °C): -1.48 ± 0.16
- self-splicing fitness (ln) (37 °C): -1.22 ± 0.14

Sequence: UAUAAGCAAUAUUACGACAA
- self-splicing fitness (ln) (30 °C): 0.0108 ± 0.14
- self-splicing fitness (ln) (37 °C): -0.202 ± 0.17

Sequence: UAUAAGCAAUAUUACGACGA
- self-splicing fitness (ln) (30 °C): -0.51 ± 0.14
- self-splicing fitness (ln) (37 °C): -1.36 ± 0.15

Sequence: UAUAAGCAAUAUUACGACGU
- self-splicing fitness (ln) (30 °C): -1.12 ± 0.11
- self-splicing fitness (ln) (37 °C): -0.116 ± 0.11

Sequence: UAUAAGCAAUAUUACGAUAU
- self-splicing fitness (ln) (30 °C): -2.9 ± 0.21
- self-splicing fitness (ln) (37 °C): -1.96 ± 0.2

Sequence: UAUAAGCAAUAUUACGAUCG
- self-splicing fitness (ln) (30 °C): -0.0932 ± 0.12
- self-splicing fitness (ln) (37 °C): -0.23 ± 0.13

Sequence: UAUAAGCAAUAUUACGCAGC
- self-splicing fitness (ln) (30 °C): -2.5 ± 0.23
- self-splicing fitness (ln) (37 °C): -2.43 ± 0.3

Sequence: UAUAAGCAAUAUUACGCGCA
- self-splicing fitness (ln) (30 °C): -0.204 ± 0.11
- self-splicing fitness (ln) (37 °C): 0.304 ± 0.14

Sequence: UAUAAGCAAUAUUACGCGUA
- self-splicing fitness (ln) (30 °C): -1.84 ± 0.2
- self-splicing fitness (ln) (37 °C): -0.627 ± 0.17

Sequence: UAUAAGCAAUAUUACGCUCA
- self-splicing fitness (ln) (30 °C): -0.3 ± 0.14
- self-splicing fitness (ln) (37 °C): 0.688 ± 0.21

Sequence: UAUAAGCAAUAUUACGCUUU
- self-splicing fitness (ln) (30 °C): -4.08 ± 0.35
- self-splicing fitness (ln) (37 °C): -2.77 ± 0.3

Sequence: UAUAAGCAAUAUUACGGAUU
- self-splicing fitness (ln) (30 °C): -3.03 ± 0.21
- self-splicing fitness (ln) (37 °C): -1.51 ± 0.19

Sequence: UAUAAGCAAUAUUACGGGGG
- self-splicing fitness (ln) (30 °C): -3.88 ± 0.29
- self-splicing fitness (ln) (37 °C): -3.09 ± 0.24

Sequence: UAUAAGCAAUAUUACGGUAA
- self-splicing fitness (ln) (30 °C): -2.02 ± 0.2
- self-splicing fitness (ln) (37 °C): -0.715 ± 0.14

Sequence: UAUAAGCAAUAUUACGGUCU
- self-splicing fitness (ln) (30 °C): -1.22 ± 0.13
- self-splicing fitness (ln) (37 °C): -1.05 ± 0.17

Sequence: UAUAAGCAAUAUUACGUAAU
- self-splicing fitness (ln) (30 °C): -3.56 ± 0.37
- self-splicing fitness (ln) (37 °C): -0.822 ± 0.19

Sequence: UAUAAGCAAUAUUACGUACU
- self-splicing fitness (ln) (30 °C): -1.69 ± 0.16
- self-splicing fitness (ln) (37 °C): -0.993 ± 0.11

Sequence: UAUAAGCAAUAUUACGUAGA
- self-splicing fitness (ln) (30 °C): -1.89 ± 0.11
- self-splicing fitness (ln) (37 °C): -0.959 ± 0.13

Sequence: UAUAAGCAAUAUUACGUCAG
- self-splicing fitness (ln) (30 °C): -1.22 ± 0.11
- self-splicing fitness (ln) (37 °C): -0.547 ± 0.17

Sequence: UAUAAGCAAUAUUACGUCAU
- self-splicing fitness (ln) (30 °C): -3.37 ± 0.22
- self-splicing fitness (ln) (37 °C): -0.173 ± 0.15

Sequence: UAUAAGCAAUAUUACGUGAC
- self-splicing fitness (ln) (30 °C): -2.15 ± 0.19
- self-splicing fitness (ln) (37 °C): -0.695 ± 0.3

Sequence: UAUAAGCAAUAUUACGUGAU
- self-splicing fitness (ln) (30 °C): -1.89 ± 0.13
- self-splicing fitness (ln) (37 °C): -1.45 ± 0.17

Sequence: UAUAAGCAAUAUUACGUGGU
- self-splicing fitness (ln) (30 °C): -3.76 ± 0.29
- self-splicing fitness (ln) (37 °C): -2.53 ± 0.21

Sequence: UAUAAGCAAUAUUACGUUGG
- self-splicing fitness (ln) (30 °C): -2.78 ± 0.13
- self-splicing fitness (ln) (37 °C): -2.23 ± 0.17

Sequence: UAUCAGCAAUAUUACGACCU
- self-splicing fitness (ln) (30 °C): -0.529 ± 0.071
- self-splicing fitness (ln) (37 °C): 0.112 ± 0.1

Sequence: UAUCAGCAAUAUUACGACGC
- self-splicing fitness (ln) (30 °C): -2.09 ± 0.13
- self-splicing fitness (ln) (37 °C): -0.508 ± 0.13

Sequence: UAUCAGCAAUAUUACGCAGG
- self-splicing fitness (ln) (30 °C): -1.01 ± 0.055
- self-splicing fitness (ln) (37 °C): 0.028 ± 0.07

Sequence: UAUCAGCAAUAUUACGCCAG
- self-splicing fitness (ln) (30 °C): -0.548 ± 0.15
- self-splicing fitness (ln) (37 °C): -0.584 ± 0.18

Sequence: UAUCAGCAAUAUUACGCCCC
- self-splicing fitness (ln) (30 °C): 1 ± 0.34
- self-splicing fitness (ln) (37 °C): -1.06 ± 0.41

Sequence: UAUCAGCAAUAUUACGCCUC
- self-splicing fitness (ln) (37 °C): -1.96 ± 0.47

Sequence: UAUCAGCAAUAUUACGCGGA
- self-splicing fitness (ln) (30 °C): -0.964 ± 0.081
- self-splicing fitness (ln) (37 °C): -0.0724 ± 0.076

Sequence: UAUCAGCAAUAUUACGCUCG
- self-splicing fitness (ln) (30 °C): -0.0189 ± 0.079
- self-splicing fitness (ln) (37 °C): 0.35 ± 0.12

Sequence: UAUCAGCAAUAUUACGCUUG
- self-splicing fitness (ln) (30 °C): -0.489 ± 0.098
- self-splicing fitness (ln) (37 °C): 0.0735 ± 0.12

Sequence: UAUCAGCAAUAUUACGGAGG
- self-splicing fitness (ln) (30 °C): -1.18 ± 0.13
- self-splicing fitness (ln) (37 °C): -0.979 ± 0.14

Sequence: UAUCAGCAAUAUUACGGAGU
- self-splicing fitness (ln) (30 °C): -2.09 ± 0.068
- self-splicing fitness (ln) (37 °C): -0.974 ± 0.09

Sequence: UAUCAGCAAUAUUACGGAUU
- self-splicing fitness (ln) (30 °C): -0.839 ± 0.079
- self-splicing fitness (ln) (37 °C): 0.0545 ± 0.1
